PMC2636851
Changes are numbered by the printed parent chain.

Experiments:
Mcm10-ID K412E/K413E = molecular target: T1, Mcm10-ID K412E/K413E (Xenopus laevis, UniProt Q5EAW4 230-427, K412E;K413E); assay: fluorescence anisotropy
T1 sequence: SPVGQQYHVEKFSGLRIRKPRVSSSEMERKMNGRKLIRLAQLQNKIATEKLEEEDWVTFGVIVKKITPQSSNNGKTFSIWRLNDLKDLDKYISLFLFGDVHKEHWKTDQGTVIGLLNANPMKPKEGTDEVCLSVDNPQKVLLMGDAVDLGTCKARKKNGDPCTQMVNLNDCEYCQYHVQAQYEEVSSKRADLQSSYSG

Mcm10-ID K417E/R418E = molecular target: T2, Mcm10-ID K417E/R418E (Xenopus laevis, UniProt Q5EAW4 230-427, K417E;R418E); assay: fluorescence anisotropy
T2 sequence: T1 sequence with E183K, E184K, K188E, R189E

Mcm10-ID F326A = molecular target: T3, Mcm10-ID F326A (Xenopus laevis, UniProt Q5EAW4 230-427, F326A); assay: fluorescence anisotropy
T3 sequence: T1 sequence with F97A, E183K, E184K

Mcm10-ID K385E/K386E = molecular target: T4, Mcm10-ID K385E/K386E (Xenopus laevis, UniProt Q5EAW4 230-427, K385E;K386E); assay: fluorescence anisotropy
T4 sequence: T1 sequence with K156E, K157E, E183K, E184K

Mcm10-ID K293A = molecular target: T5, Mcm10-ID K293A (Xenopus laevis, UniProt Q5EAW4 230-427, K293A); assay: fluorescence anisotropy
T5 sequence: T1 sequence with K64A, E183K, E184K

Mcm10-ID wild type [1] = molecular target: T6, Mcm10-ID wild type (Xenopus laevis, UniProt Q5EAW4 230-427); assay: NMR
T6 sequence: T1 sequence with E183K, E184K

Mcm10-ID wild type [2] = molecular target: T6, Mcm10-ID wild type; assay: fluorescence anisotropy

Does ATGGTAGGCAACCATGTAGTAGTCA (ssDNA) [25mer ssDNA] bind (Mcm10-ID K412E/K413E)?
Result: binds

Does ATGGTAGGCAACCATGTAGTAGTCA (ssDNA) [25mer ssDNA] bind (Mcm10-ID K417E/R418E)?
Result: binds

Does ATGGTAGGCAACCATGTAGTAGTCA (ssDNA) [25mer ssDNA] bind (Mcm10-ID F326A)?
Result: binds

And the binding signal (Mcm10-ID K385E/K386E)?
The binding signal was 10 fold reduction in affinity vs wild type.

And the binding signal (Mcm10-ID K293A)?
The binding signal was 5 fold reduction in affinity vs wild type.

Does GGCGCATTGTCGCAA (ssDNA) [15mer ssDNA (NMR)] bind (Mcm10-ID wild type [1])?
Result: binds

Does ATGGTAGGCA (ssDNA) [10mer from 5' end of 25mer] bind (Mcm10-ID wild type [2])?
Result: binds
